Assay results as given in patent US20180002754A1.

Legend:
[1] = biological target: Frizzled-2 (human Fzd2) (human) (UniProt Q14332); assay: SPR (Biacore) binding analysis, text to Table 1 and FIG. 10
[2] = biological target: Frizzled-2 (human Fzd2) (human) (UniProt Q14332); assay: SPR (BioCore study performed by Precision Antibody), legend of FIG. 10
[3] = biological target: Frizzled-2 (human Fzd2) (human) (UniProt Q14332); assay: SPR (Biacore, by Precision Antibody); antibody as ligand, Frizzled-2 as analyte at 0-500 nM

Sequence of UniProt Q14332 (Q14332 24-247 limits assumed): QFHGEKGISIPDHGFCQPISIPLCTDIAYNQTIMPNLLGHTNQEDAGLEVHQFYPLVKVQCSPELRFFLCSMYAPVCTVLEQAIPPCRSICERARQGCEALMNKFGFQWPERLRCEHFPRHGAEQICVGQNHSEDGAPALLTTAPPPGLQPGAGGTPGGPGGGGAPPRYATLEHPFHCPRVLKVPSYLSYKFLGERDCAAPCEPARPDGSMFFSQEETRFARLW

Kd [1]: < 20 nM
Kd [2]: 20 nM
Ka [3]: 5.2e+07 M⁻¹
Kd [3]: 19 nM
koff [3]: 0.00074 s⁻¹
kon [3]: 39000 M⁻¹ s⁻¹
Substance: anti-Fzd2 antibody (R & D Systems; MAB1307)
